# Entries after “also recorded” stand apart in the source; their conditions may differ. Where no end group is shown, it is not given here.
# How the values were obtained:
# UFC1 [1] = biological target: T1, UFC1 (Homo sapiens, UniProt Q9Y3C8); assay: In vitro thioester formation (ufmylation) assay, UFC1~UFM1 conjugate; format: biochemical; settings: for effect on UFC1~UFM1 conjugation (in words): 1 mM ATP, 22 °C, peptides added to UBA5 AD^1–330 where applicable; for UFC1~UFM1 conjugate fraction (in words): ATP reduced to 25 µM, compared to wild type peptide
# T1 construct: Full length UFC1, residues 1–167; modified ubiquitin tag (Ub19) with TEV site (N, cleaved yes); made in house; host or cells: E. coli T7 Express
# T1 sequence (Q9Y3C8 1-167): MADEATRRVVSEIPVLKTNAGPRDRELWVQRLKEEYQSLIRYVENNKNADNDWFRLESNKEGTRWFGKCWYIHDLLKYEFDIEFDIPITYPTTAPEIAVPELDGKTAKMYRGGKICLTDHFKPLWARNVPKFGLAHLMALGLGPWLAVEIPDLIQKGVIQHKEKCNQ
# Description: First, we analyzed the effect of the UBA5 C-terminus on UFM1 transfer to UFC1 with an in vitro thioester formation assay (Figure 1B–E).
# Ufmylation reaction assays were adopted from work of Xie. Briefly, 70 µM UFM1, 20 µM UFC1 and 20 µM of different UBA5 constructs were mixed in reaction buffer (50 mM HEPES pH = 7.5, 100 mM NaCl, 5 mM MgCl2). After starting the reaction with addition of 1 mM ATP, the reaction mix was incubated at 22 °C for the desired time. To quench the reaction and prepare electrophoretic samples, 1 µL of the reaction mix was added to 99 µL 1x non-reducing SDS loading buffer and frozen in liquid nitrogen. Sample content was visualized by sodium dodecyl sulfate polyacrylamide gel electrophoresis (SDS-PAGE). The transfer to polyvinylidene difluoride (PVDF) membrane was performed via a Trans-Blot® Turbo™ Transfer System (Bio-Rad, München, Germany). After transfer the membrane was blocked with TBST (Tris-buffered saline with Tween20 buffer, 20 mM Tris, 150 mM NaCl and 0.1% TWEEN 20) containing 5% w/v nonfat dry milk for 1 h, followed by α-UFC1 antibody incubation over night at 4 °C (ab189251 abcam, 1:10,000 in TBST containing 5% w/v nonfat dry milk). After washing with TBST the membrane was incubated with secondary antibody (anti-rabbit-HRP) for 1 h at RT and again washed with TBST. Detection was performed by addition of ECL solution. For quantification of UFC1 ufmylation coloc2 software implemented in ImageJ was used.
# GABARAPL2 = biological target: T2, GABARAPL2 (Homo sapiens, UniProt P60520); assay: ITC, UBA5 peptides vs GABARAPL2; format: binding; settings: for affinity increase to GABARAPL2 vs wild type peptide / ΔG / ΔS / −T*ΔS / KA*10^−6: 25 °C; for ΔG / ΔS / −T*ΔS: vs GABARAPL2; for KA*10^−6: vs GABARAPL2, value is KA × 10^−6, ± = fitting error; for affinity change, GABARAPL2: A371 mutants of R1-R2-R3^325–404
# T2 construct: modified ubiquitin tag (Ub19) with TEV site (N, cleaved yes); made in house; host or cells: E. coli T7 Express
# T2 sequence (P60520 3-116): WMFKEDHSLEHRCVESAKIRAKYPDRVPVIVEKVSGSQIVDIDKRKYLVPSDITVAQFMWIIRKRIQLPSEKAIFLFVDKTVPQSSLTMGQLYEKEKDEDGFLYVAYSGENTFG
# Source text: (§1) To understand how the UBA5 C-terminus participates in the ufmylation cascade, we performed isothermal titration calorimetry (ITC) experiments, in which we titrated UBA5 C-terminal peptides (see Table 1) to the UBA5 AD, UFC1, UFM1 and representative LC3/GABARAP proteins (Figure 2A, Supplementary Figure S2A–D and Table 2).
# (§2) All proteins and peptides were expressed in E.Coli T7 Express (New England Biolabs GmbH, Frankfurt, Germany) cells in LB or M9 (to obtain ^15N- and ^13C,^15N-labeled polypeptides) media according to the protocol described in [33, 36]. For protein purification, bacterial cell pellets were resuspended in lysis buffer (50 mM Tris-HCl pH = 7.5, 100 mM NaCl, 5% glycerol, 5 mM PIC (protease inhibitor cocktail)) and lysed via sonication (TT13 Sonotrode, 40% amplitude, for 6 × 1 min with a 0.5/0.5-s pulse). Lysates were centrifuged for 45 min at 17,000× g at 4 °C. Supernatants were loaded onto a His Trap Fast Flow 5 mL column (GE Healthcare, München, Germany) equilibrated in loading buffer (50 mM Tris-HCl pH = 8.0, 250 mM NaCl, 1% glycerol, 20 mM imidazole). The column was washed with loading buffer for 5–10 CV and protein was eluted with elution buffer (50 mM Tris-HCl pH = 8, 250 mM NaCl, 1% glycerol, 400 mM imidazole). Simultaneous TEV cleavage (1 mg TEV protease was added to 100 mg peptides/proteins) and buffer exchange to loading buffer via dialysis was performed over night at 4 °C. After reverse IMAC, proteins were concentrated with conical concentrators (Millipore Merck, Darmstadt, Germany) and loaded on a Superdex 10/60 75 or 200 column (GE Healthcare, München, Germany) for further purification and equilibration with ITC/NMR buffer (25 mM HEPES pH = 7.5, 100 mM NaCl). For structural NMR spectroscopy, buffer containing 50 mM Tris-HCl pH = 7.5, 100 mM NaCl was used. Prior to NMR experiments, TCEP and protease inhibitors cocktail were added to the samples to final concentrations 1 and 5 mM, respectively. Purified peptides and protein were concentrated and stored at −80 °C. The protein and peptide concentrations were calculated from the UV absorption at 280 nm by Nanodrop spectrophotometer (Thermo Scientific, Langenselbold, Germany).
# (§3) All ITC experiments were performed at 25 °C using a VP-ITC microcalorimeter (Malvern Panalytical Ltd., Malvern, UK). Peptides in concentration of ~400 µM were titrated into 20–25 µM solutions of corresponding binding partner at a stirring speed of 307 rpm. The raw data were corrected on the dilution heat of peptides obtained in independent experiment (titration of the peptide in syringe into the ITC/NMR buffer in the measuring cell). Pre-titration delay was set to 180 s, interval between titration steps was experimentally adjusted to avoid kinetic contribution to the observed heat effects and set to 200 s. A single ITC profile was collected for each type of interaction. The ITC data were analyzed based on a “one-site” binding model with MicroCal ITC software implemented in Origin 7.0.
# UFM1 = biological target: T3, UFM1 (Homo sapiens, UniProt P61960); assay: ITC, UBA5 peptides vs UFM1; format: binding; settings: 25 °C; for ΔG / −T*ΔS: vs UFM1; for ΔS: vs UFM1, one-site model, single profile; for KA*10^−6: vs UFM1, value is KA × 10^−6, ± = fitting error
# T3 construct: Full length UFM1, residues 2–83; modified ubiquitin tag (Ub19) with TEV site (N, cleaved yes); made in house; host or cells: E. coli T7 Express
# T3 sequence (P61960 2-83): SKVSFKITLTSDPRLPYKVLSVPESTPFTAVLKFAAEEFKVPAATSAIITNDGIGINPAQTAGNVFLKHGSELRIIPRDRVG
# Source text: as §1, §2, §3
# UFC1 [2] = biological target: T1, UFC1; assay: ITC, UBA5 constructs vs UFC1; format: binding; settings: for N: ITC stoichiometry; for N / ΔG / −T*ΔS / ΔS / KA*10^−6: peptide vs UFC1; for N / KA*10^−6 / ΔH: ± = fitting error; for ΔG / −T*ΔS / ΔS / KA*10^−6 / Kd / ΔH: ITC, 25 °C; for ΔS / Kd / ΔH: one-site model; for ΔS: single profile; for KA*10^−6: value is KA × 10^−6; for Kd / ΔH: VP-ITC, peptide ~400 µM titrated into 20–25 µM UFC1, 25 mM HEPES pH 7.5, 100 mM NaCl, single ITC profile
# Source text: as §1
# To investigate if conjugation of UFM1 to the UBA5 catalytic cysteine (C250) affects the UFC1:UBA5 interactions, we prepared full length UBA5 C250K mutant and stably conjugated UFM1 to it as reported before for a number of ubiquitin-specific E2 enzymes. We compared the UFC1 spectra after addition of a twofold molar excess of FL^1–404 and FL^1–404 C250K~UFM1 constructs (Supplementary Figure S5C).
# as §2, §3
# LC3B = biological target: T4, LC3B (Homo sapiens, UniProt Q9GZQ8); assay: ITC, UBA5 peptides vs LC3B; format: binding; settings: for affinity increase to LC3B vs wild type peptide / ΔG / ΔS / −T*ΔS / KA*10^−6: 25 °C; for ΔG / ΔS / −T*ΔS / KA*10^−6: vs LC3B; for KA*10^−6: value is KA × 10^−6, ± = fitting error; for affinity change, LC3B: A371 mutants of R1-R2-R3^325–404
# T4 construct: LC3B, residues 5–120; ubiquitin tag Ub3 (vector pETm60_Ub3) (cleaved yes); made in house; host or cells: E. coli T7 Express
# Source text: as §1, §2, §3
# UFC1 [3] = biological target: T1, UFC1; assay: NMR titration with UFC1; format: binding; settings: [15N,1H] TROSY-HSQC, 25 °C
# Description: To understand the role of the UBA5 C-terminal region in coordination of the binding events reported above on the molecular level, we performed NMR titration experiments. […] It seems, that these UBA5 residues form additional interactions with UFC1.
# All NMR experiments were performed at a sample temperature of 25 °C on Bruker 600, 700, 800, 900, and 950 MHz spectrometers equipped with cryogenic probes, and a 500 MHz spectrometer equipped with a room-temperature triple-resonance probe. All NMR spectra were analyzed with the Sparky 3.114 software (University of California, San Francisco, USA). For NMR titration experiments, the non-labeled UBA5 peptides were titrated to 100 µM ^13C,^15N-labeled UFC1 to a final molar ratio of 1:8 (UFC1:UBA5 peptide). Conversely, 100 µM ^13C,^15N-labeled UBA5 peptides were titrated with non-labeled UFC1 to a final molar ratio 1:4 (UBA5 peptide:UFC1). 2D ^1H-^15N correlation spectra ([^15N,^1H] TROSY-HSQC) were recorded at each titration point. The same types of spectra were recorded to estimate binding of ^13C,^15N-labeled UFC1 (75 µM) to non-labeled UBA5, UBA5~UFM1 and UFM1 at 1:2 molar ratios. CSP values, Δδ, were calculated for each individual amide group using the formula Δδ = [(ΔδN/5)^2 + Δδ^2HN)]^1/2.
substance,measurement,setting,value
"GABARAPL2: GABARAPL2, residues 3–116",effect of GABARAPL2 on UFC1~UFM1 conjugation,UFC1 [1]; high concentration of GABARAPL2 added to ufmylation assay,could efficiently prohibit the UFC1~UFM1 conjugation
R1-R2-R3^325–404 A371T: UBA5 C-terminal part with A371T mutant (res. 325–404),affinity increase to GABARAPL2 vs wild type peptide,GABARAPL2,~ 3 fold
same,ΔG,GABARAPL2,-9.89 kcal/mol
same,ΔS,GABARAPL2,7.76 cal mol^−1 K^−1
same,−T*ΔS,GABARAPL2,-2.31 kcal/mol
same,KA*10^−6,GABARAPL2,17.90 ± 3.75 M^−1
same,"affinity change, GABARAPL2",GABARAPL2,some increase in affinity
same,effect on UFC1~UFM1 conjugation (in words),UFC1 [1],nearly the same trans-thioesterification efficiency compared to wild type
same,effect on UFC1~UFM1 conjugation (in words),UFC1 [1]; listed as A371T,did not affect significantly the formation of the UFC1~UFM1 conjugate
same,UFC1~UFM1 conjugate fraction (in words),UFC1 [1],reduction of the UFC1~UFM1 conjugate fraction
same,ΔG,UFM1,-7.02 kcal/mol
same,−T*ΔS,UFM1,3.96 kcal/mol
same,ΔS,UFM1,−13.3 cal mol^−1 K^−1
same,KA*10^−6,UFM1,0.14 ± 0.01 M^−1
same,N,UFC1 [2],1.03 ± 0.008
same,ΔG,UFC1 [2],-7.82 kcal/mol
same,−T*ΔS,UFC1 [2],0.06 kcal/mol
same,ΔS,UFC1 [2],−0.19 cal mol^−1 K^−1
same,KA*10^−6,UFC1 [2],0.54 ± 0.03 M^−1
same,Kd,UFC1 [2],1.8 µM
same,ΔH,UFC1 [2],-7.88 ± 0.08 kcal/mol
same,affinity increase to LC3B vs wild type peptide,LC3B,~ 3 fold
same,ΔG,LC3B,-8.02 kcal/mol
same,ΔS,LC3B,14.3 cal mol^−1 K^−1
same,−T*ΔS,LC3B,-4.26 kcal/mol
same,KA*10^−6,LC3B,0.76 ± 0.04 M^−1
same,"affinity change, LC3B",LC3B,some increase in affinity
R1-R2-R3^325–404 A371E: UBA5 C-terminal part with A371E mutant (res. 325–404),affinity increase to GABARAPL2 vs wild type peptide,GABARAPL2,~ 3 fold
same,ΔG,GABARAPL2,-9.95 kcal/mol
same,ΔS,GABARAPL2,7.23 cal mol^−1 K^−1
same,−T*ΔS,GABARAPL2,-2.16 kcal/mol
same,KA*10^−6,GABARAPL2,19.60 ± 2.57 M^−1
same,"affinity change, GABARAPL2",GABARAPL2,some increase in affinity
same,effect on UFC1~UFM1 conjugation (in words),UFC1 [1],nearly the same trans-thioesterification efficiency compared to wild type
same,effect on UFC1~UFM1 conjugation (in words),UFC1 [1]; listed as A371E,did not affect significantly the formation of the UFC1~UFM1 conjugate
same,UFC1~UFM1 conjugate fraction (in words),UFC1 [1],reduction of the UFC1~UFM1 conjugate fraction
same,ΔG,UFM1,-6.86 kcal/mol
same,−T*ΔS,UFM1,4.56 kcal/mol
same,ΔS,UFM1,−15.3 cal mol^−1 K^−1
same,KA*10^−6,UFM1,0.11 ± 0.01 M^−1
same,N,UFC1 [2],1.03 ± 0.005
same,ΔG,UFC1 [2],-7.88 kcal/mol
same,−T*ΔS,UFC1 [2],-0.11 kcal/mol
same,ΔS,UFC1 [2],0.36 cal mol^−1 K^−1
same,KA*10^−6,UFC1 [2],0.60 ± 0.02 M^−1
same,Kd,UFC1 [2],1.6 µM
same,ΔH,UFC1 [2],-7.78 ± 0.05 kcal/mol
same,affinity increase to LC3B vs wild type peptide,LC3B,~ 7 fold
same,ΔG,LC3B,-8.49 kcal/mol
same,ΔS,LC3B,15.3 cal mol^−1 K^−1
same,−T*ΔS,LC3B,-4.56 kcal/mol
same,KA*10^−6,LC3B,1.66 ± 0.12 M^−1
same,"affinity change, LC3B",LC3B,some increase in affinity
"ΔR3^1–380: UBA5 with deleted R3 region, residues 1–380","UFM1 transfer to UFC1, ΔR3^1–380 vs FL^1–404 (in words)",UFC1 [1]; reactions started with 25 µM ATP,significantly slowed down UFM1 transfer to UFC1
same,interaction with UFC1 (in words),UFC1 [3],did not interact with UFC1
GAMEDSGESLEDLMAKMKNM [R3^388–404],Kd,UFC1 [2],10 µM
H-GAMGPVPDLPEGITVAYTIPK-OH [R2^359–376],effect on UFC1~UFM1 conjugation (in words),UFC1 [1],virtually no effect
same,interaction / affinity to UFC1 (in words),"UFC1 [2]; ITC and NMR titration, listed as R2",no direct interactions; also recorded: does not interact with UFC1
GAMGPVPDLPEGITVAYTIPKKQEDSVTELTVEDSGESLEDLMAKMKNM [R2-R3^359–404],Kd,UFC1 [2],2.7 µM

# Source: publication PMC8304084, “A Concerted Action of UBA5 C-Terminal Unstructured Regions Is Important for Transfer of Activated UFM1 to UFC1” (International Journal of Molecular Sciences, 2021)
